Source: paper PMC6350781 (Cell reports, 2018)
Substitutions are numbered along the chain they refer to.

T1: GST-Fkbp5-W90L (UniProt Q64378 1-456, W90L)
T1 sequence (looked up): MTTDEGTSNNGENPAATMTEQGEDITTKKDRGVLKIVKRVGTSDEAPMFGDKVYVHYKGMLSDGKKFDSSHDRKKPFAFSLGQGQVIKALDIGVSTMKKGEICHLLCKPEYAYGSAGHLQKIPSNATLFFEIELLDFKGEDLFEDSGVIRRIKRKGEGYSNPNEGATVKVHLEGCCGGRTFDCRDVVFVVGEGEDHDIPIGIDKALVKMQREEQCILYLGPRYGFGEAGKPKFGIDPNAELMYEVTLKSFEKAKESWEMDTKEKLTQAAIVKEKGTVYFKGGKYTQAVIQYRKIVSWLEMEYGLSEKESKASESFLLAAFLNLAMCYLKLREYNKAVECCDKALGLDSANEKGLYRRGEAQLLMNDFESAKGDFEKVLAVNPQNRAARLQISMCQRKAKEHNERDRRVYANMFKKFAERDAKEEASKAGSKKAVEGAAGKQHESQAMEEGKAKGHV

T2: GST-Fkbp5-Δ2 (UniProt Q64378 1-456, deletion of amino acids 165-251)
T2 sequence (looked up): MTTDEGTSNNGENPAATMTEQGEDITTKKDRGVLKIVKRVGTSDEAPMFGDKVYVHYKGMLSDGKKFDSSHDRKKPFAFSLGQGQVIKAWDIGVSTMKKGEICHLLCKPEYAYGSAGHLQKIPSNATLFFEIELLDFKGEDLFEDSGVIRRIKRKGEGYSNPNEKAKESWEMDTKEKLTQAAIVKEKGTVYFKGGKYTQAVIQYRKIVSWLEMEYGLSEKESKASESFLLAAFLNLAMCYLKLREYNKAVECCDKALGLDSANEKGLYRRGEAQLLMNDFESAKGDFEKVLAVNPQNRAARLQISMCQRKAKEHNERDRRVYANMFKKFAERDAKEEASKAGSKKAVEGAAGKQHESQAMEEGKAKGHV

T3: GST-Fkbp5-Δ1 (UniProt Q64378 1-456, deletion of amino acids 50-138)
T3 sequence (looked up): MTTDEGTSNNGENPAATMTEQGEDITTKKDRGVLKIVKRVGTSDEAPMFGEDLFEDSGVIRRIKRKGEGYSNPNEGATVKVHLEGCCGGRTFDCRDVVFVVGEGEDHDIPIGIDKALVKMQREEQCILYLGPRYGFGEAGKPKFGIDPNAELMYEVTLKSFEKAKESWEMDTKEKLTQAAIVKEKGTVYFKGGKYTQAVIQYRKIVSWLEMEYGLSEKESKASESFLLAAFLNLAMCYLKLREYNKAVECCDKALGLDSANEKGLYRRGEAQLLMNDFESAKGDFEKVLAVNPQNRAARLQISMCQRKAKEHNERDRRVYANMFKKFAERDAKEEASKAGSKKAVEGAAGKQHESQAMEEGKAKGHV

T4: GST-Fkbp5-F130Y (UniProt Q64378 1-456, F130Y)
T4 sequence (looked up): T1 sequence (looked up) with L90W, F130Y

T5: GST-Fkbp5 (UniProt Q64378 1-456)
T5 sequence (looked up): T1 sequence (looked up) with L90W

B1: Cdk4-6×His (natural protein, UniProt P30285 1-303, looked up)
chain: MAATRYEPVAEIGVGAYGTVYKARDPHSGHFVALKSVRVPNGGAAGGGLPVSTVREVALLRRLEAFEHPNVVRLMDVCATSRTDRDIKVTLVFEHIDQDLRTYLDKAPPPGLPVETIKDLMRQFLSGLDFLHANCIVHRDLKPENILVTSNGTVKLADFGLARIYSYQMALTPVVVTLWYRAPEVLLQSTYATPVDMWSVGCIFAEMFRRKPLFCGNSEADQLGKIFDLIGLPPEDDWPREVSLPRGAFAPRGPRPVQSVVPEMEESGAQLLLEMLTFNPHKRISAFRALQHSYLHKEESDAE
B2: Cdk4-Δ1-6×His (domain or fragment, UniProt P30285 101-303, looked up)
chain: RTYLDKAPPPGLPVETIKDLMRQFLSGLDFLHANCIVHRDLKPENILVTSNGTVKLADFGLARIYSYQMALTPVVVTLWYRAPEVLLQSTYATPVDMWSVGCIFAEMFRRKPLFCGNSEADQLGKIFDLIGLPPEDDWPREVSLPRGAFAPRGPRPVQSVVPEMEESGAQLLLEMLTFNPHKRISAFRALQHSYLHKEESDAE
B3: Cdk4-Δ2-6×His (natural protein, UniProt P30285 1-303, looked up)
chain: MAATRYEPVAEIGVGAYGTVYKARDPHSGHFVALKSVRVPNGGAAGGGLPVSTVREVALLRRLEAFEHPNVVRLMDVCATSRTDRDIKVTLVFEHIDQDLGCIFAEMFRRKPLFCGNSEADQLGKIFDLIGLPPEDDWPREVSLPRGAFAPRGPRPVQSVVPEMEESGAQLLLEMLTFNPHKRISAFRALQHSYLHKEESDAE
B4: Cdk4-Δ3-6×His (domain or fragment, UniProt P30285 1-200, looked up)
chain: MAATRYEPVAEIGVGAYGTVYKARDPHSGHFVALKSVRVPNGGAAGGGLPVSTVREVALLRRLEAFEHPNVVRLMDVCATSRTDRDIKVTLVFEHIDQDLRTYLDKAPPPGLPVETIKDLMRQFLSGLDFLHANCIVHRDLKPENILVTSNGTVKLADFGLARIYSYQMALTPVVVTLWYRAPEVLLQSTYATPVDMWSV

Assays:
Test in all cases: pull-down
GST-Fkbp5-W90L = target: T1, GST-Fkbp5-W90L
GST-Fkbp5-Δ2 = target: T2, GST-Fkbp5-Δ2
GST-Fkbp5-Δ1 = target: T3, GST-Fkbp5-Δ1
GST-Fkbp5-F130Y = target: T4, GST-Fkbp5-F130Y
GST-Fkbp5 = target: T5, GST-Fkbp5

Row | Binder | binding result (GST-Fkbp5-W90L) | binding result (GST-Fkbp5-Δ2) | binding result (GST-Fkbp5-Δ1) | binding result (GST-Fkbp5-F130Y) | binding result (GST-Fkbp5)
1 | B1 | binds | binds | binds | binds | binds
2 | B2 |  |  |  |  | binds
3 | B3 |  |  |  |  | binds
4 | B4 |  |  |  |  | binds
